Data taken from patent CN112062844A (SHANDONG BOAN BIOTECHNOLOGY CO LTD, dated 2020).

How the values were obtained:
[1] = molecular target: T1, ANGPTL3蛋白(10770-H08B，义翘神州) (UniProt Q9Y5C1 17-460); test: SPR, BIAcore 8K, antibody captured by anti-human IgG Fc on CM5, ANGPTL3 as analyte, 1:1 model
T1 construct: Bought protein; also called 血管生成素样蛋白3; 抗原ANGPTL3
T1 sequence (looked up): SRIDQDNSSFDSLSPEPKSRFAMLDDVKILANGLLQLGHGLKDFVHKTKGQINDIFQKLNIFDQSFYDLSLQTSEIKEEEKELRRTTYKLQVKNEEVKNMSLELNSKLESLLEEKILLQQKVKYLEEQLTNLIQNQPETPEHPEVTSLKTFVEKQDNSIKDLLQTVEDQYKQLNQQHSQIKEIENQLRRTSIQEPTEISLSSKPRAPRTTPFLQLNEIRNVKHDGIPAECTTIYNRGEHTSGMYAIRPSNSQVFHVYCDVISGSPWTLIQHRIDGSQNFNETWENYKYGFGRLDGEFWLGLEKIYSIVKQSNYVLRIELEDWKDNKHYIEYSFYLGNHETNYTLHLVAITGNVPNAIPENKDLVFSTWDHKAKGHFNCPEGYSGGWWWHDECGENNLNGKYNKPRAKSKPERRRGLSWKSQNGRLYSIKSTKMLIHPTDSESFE

[2] = molecular target: T1, ANGPTL3蛋白(10770-H08B，义翘神州); test: ELISA, ANGPTL3 coated at graded concentrations (0.2-0 μg/mL), antibody 1 μg/mL, OD450
[3] = molecular target: T1, ANGPTL3蛋白(10770-H08B，义翘神州); test: cell-based or functional assay

Kd [1]: 0.452 nM | koff [1]: 0.000275 s⁻¹ | kon [1]: 609000 M⁻¹ s⁻¹ | EC50 [2]: 0.162 µg/mL | 酶活检测EC50 (LPL, DGGR底物, 荧光值) [3]: 95.1 µg/mL
B1: AP-REGN-IgG4 (antibody, V domains shown)
VH: EVQLVESGGGVIQPGGSLRLSCAASGFTFDDYAMNWVRQGPGKGLEWVSAISGDGGSTYYADSVKGRFTISRDNSKNSLYLQMNSLRAEDTAFFYCAKDLRNTIFGVVIPDAFDIWGQGTMVTVSS
VL: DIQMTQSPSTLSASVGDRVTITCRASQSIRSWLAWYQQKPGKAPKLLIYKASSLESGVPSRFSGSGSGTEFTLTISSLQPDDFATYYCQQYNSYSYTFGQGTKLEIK
notes: IgG4 by its name; also called Evinacumab; evinacumab
